Results on two proteins are retold here after publication PMC3229823 (Virology, 2011).

Data set [1] deals with the molecule itself.
Data set [2] concerns the molecule itself. Kind of data set: SDS-resistant complexes on SDS-polyacrylamide gel, coomassie staining.

Where two headings read alike, the source gives them in different places.

B1: MBP-SV40 Agno (full length SV40 agnoprotein fused to MBP) (natural protein)
chain: MVLRRLSRQASVKVRRSWTESKKTAQRLFVFVLELLLQFCEGEDTVDGKRKKPERLTEKPES
For the protein B1, the binding result in data set [1] is reported as “binds”.

B2: MBP-Agno (17-71) (domain or fragment)
chain: TWSGTKKRAQRILIFLLEFLLDFCTGEDSVDGKKRQRHSGLTEQTYSALPEPKAT
For the protein B2, the binding result in data set [2] was “binds”.
